Patent US20020002269A1, “ARTEMIN, A NEUROTROPHIC FACTOR” (priority 1998, published 2002)

B1: GDNF: recombinant human mature GDNF obtained from Genentech (protein, UniProt P39905 78-211, looked up)
Glial cell line-derived …: SPDKQMAVLPRRERNRQAAAANPENSRGKGRRGQRGKNRGCVLTAIHLNVTDLGLGYETKEELIFRYCSGSCDAAETTYDKILKNLSRNRRLVSDKVGQACCRPIAFDDDLSFLDDNLVYHILRKHSAKRCGCI

Columns and labels:
Format in all cases: cell-based
[1] = test system: SAN neuroblastoma cell line; experiment: Responsiveness of a neuroblastoma cell line that does not express RET (SAN); settings: data not shown
[2] = test system: CHP126 neuroblastoma cell line; experiment: Responsiveness of a neuroblastoma cell line that does not express RET (CHP126); settings: data not shown
[3] = biological target: T1, GFRα2/RET (Homo sapiens, UniProt O00451+P07949); experiment: Ga14-Elk/Ga14-Luc reporter in RET-3T3 fibroblasts transfected with GFRα2; settings: RET-3T3, 50 ng/ml for 6-8 hours, FIG. 10A
T1 construct: expressed in transfected cells; host or cells: MG87 fibroblasts stably expressing human RET (RET-3T3), transiently transfected with the CMV-GFRα2 plasmid
T1 sequence (O00451 22-444 limits assumed): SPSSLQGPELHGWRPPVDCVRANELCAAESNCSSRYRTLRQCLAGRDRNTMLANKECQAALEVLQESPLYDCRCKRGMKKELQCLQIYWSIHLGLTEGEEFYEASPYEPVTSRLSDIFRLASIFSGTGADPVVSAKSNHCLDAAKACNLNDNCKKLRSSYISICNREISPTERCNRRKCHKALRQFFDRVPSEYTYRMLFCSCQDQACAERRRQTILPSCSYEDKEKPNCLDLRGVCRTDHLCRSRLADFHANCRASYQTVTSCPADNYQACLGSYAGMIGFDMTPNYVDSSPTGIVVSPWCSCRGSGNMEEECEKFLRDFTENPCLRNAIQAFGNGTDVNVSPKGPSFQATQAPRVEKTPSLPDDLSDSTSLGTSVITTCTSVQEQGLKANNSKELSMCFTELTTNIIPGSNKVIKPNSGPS
T1 sequence (P07949 29-1114): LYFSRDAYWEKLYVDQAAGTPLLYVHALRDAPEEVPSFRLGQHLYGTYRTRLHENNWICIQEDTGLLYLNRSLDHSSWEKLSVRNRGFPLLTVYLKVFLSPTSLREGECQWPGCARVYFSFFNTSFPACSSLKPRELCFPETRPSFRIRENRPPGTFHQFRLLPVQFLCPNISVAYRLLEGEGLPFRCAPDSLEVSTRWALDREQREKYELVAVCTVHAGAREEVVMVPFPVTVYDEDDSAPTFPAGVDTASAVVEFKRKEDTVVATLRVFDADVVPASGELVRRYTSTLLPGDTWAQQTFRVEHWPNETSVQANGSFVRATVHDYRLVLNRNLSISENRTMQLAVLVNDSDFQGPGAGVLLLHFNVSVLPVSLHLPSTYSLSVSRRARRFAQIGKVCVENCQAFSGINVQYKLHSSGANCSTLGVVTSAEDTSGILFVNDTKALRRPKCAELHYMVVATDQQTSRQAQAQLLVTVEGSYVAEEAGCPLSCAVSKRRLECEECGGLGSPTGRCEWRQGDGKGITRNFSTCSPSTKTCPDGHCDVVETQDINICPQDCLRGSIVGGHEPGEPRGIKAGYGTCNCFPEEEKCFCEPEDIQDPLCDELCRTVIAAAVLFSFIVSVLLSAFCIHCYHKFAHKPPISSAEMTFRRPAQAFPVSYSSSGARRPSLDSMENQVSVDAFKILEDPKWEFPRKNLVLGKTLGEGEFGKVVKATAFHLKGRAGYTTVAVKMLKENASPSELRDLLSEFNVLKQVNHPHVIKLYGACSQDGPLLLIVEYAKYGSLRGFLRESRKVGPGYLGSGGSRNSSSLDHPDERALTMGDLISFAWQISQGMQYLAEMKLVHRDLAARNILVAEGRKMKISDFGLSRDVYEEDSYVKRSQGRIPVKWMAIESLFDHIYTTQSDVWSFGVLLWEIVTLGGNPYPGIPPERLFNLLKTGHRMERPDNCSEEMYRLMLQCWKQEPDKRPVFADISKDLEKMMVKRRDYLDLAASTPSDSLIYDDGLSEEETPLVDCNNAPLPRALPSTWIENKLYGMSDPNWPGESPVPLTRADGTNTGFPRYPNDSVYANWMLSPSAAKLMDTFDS
Procedure: (§1) Thus, to directly test which receptor combinations can form functional receptors for artemin, expression plasmids for the individual GFRA coreceptors together with the Ga14-Elk/Ga14-Luc reporter system were transiently transformed into fibroblasts that stably express RET. […]
(§2) NLF neuroblastoma cells, which naturally express GFRα2/RET (Tansey et al., submitted), or the RET-3T3 cells were plated at 85,000 cells/well in 12-well plates, and cotransfected with the reporter plasmids Ga14-Luc and CMV-Ga14-Elk (250 ng/well and 50 ng/well, respectively), CMV-lacZ (50 ng/well) for transfection normalization, one of the CMV-GFRA expression plasmids (500 ng/well), and pBluescript (650 ng/well) as carrier for a total of 1.5 μg DNA/well using the Superfect reagent (Qiagen) according to the manufacturer's instructions. […] Measurement of luciferase and β-galactosidase activity was measured using a luminometer and performed as described (Svaren et al., EMBO J 17:6010-6019, 1998). The average luciferase activity of duplicate samples was normalized to β-galactosidase activity of the cotransformed lacZ reporter, and fold activation was calculated by dividing the normalized activity in factor-treated cells by that in the no treatment control.

[4] = test system: NBL-S neuroblastoma cell line; experiment: BrdU cell proliferation assay in NBL-S neuroblastoma cells; settings: 50 ng/mL, 30 hrs after factor addition, FIG. 8D
Procedure: In another experiment, the ability of artemin to induce proliferation of the NBL-S neuroblastoma cell line was examined. NBL-S cells were plated at 5×10^4 cells/well on 48-well plates in standard medium, either without treatment or in the presence of 50 ng/mL of GDNF, artemin, or persephin. Actively dividing cells undergoing DNA synthesis 30 hrs after factor addition were detected using the BrdU (colorimetric) cell proliferation assay kit according to the manufacturer's instructions (Boehringer-Mannheim) and the data are shown in FIG. 8D.

[5] = test system: NLF cells transformed with GFRα3; experiment: Ga14-Elk/Ga14-Luc reporter in NLF neuroblastoma cells transformed with GFRα3; settings: factor for 24 hours, low-serum medium, FIG. 10B
Procedure: as §1, §2

[6] = biological target: T2, RET (Homo sapiens, UniProt P07949); experiment: Western blot of RET phosphorylation and MAP kinase activation in NBL-S cells, with or without PI-PLC; settings: FIG. 9B
T2 construct: both the SH-SY5Y and NBL-S cell lines express GFRα1, GFRα2, and GFRα3, as well as RET; endogenous in cells; host or cells: NBL-S neuroblastoma cells
T2 sequence (P07949 29-1114): as above
Procedure: In brief, SCG neurons were dissected from postnatal day 1 (P1) rats and maintained in NGF-containing medium for 5 days, after which they were deprived of NGF by switching to NGF-free medium in the presence of anti-NGF antibodies. After 2 hours without NGF, neurons were switched to medium containing NGF, GDNF or artemin at 50 ng/ml for 20 minutes. Cells were washed in cold PBS, and collected in immunoprecipitation buffer (1 mM EDTA/1 mM EGTA/0.2 mM NaVO3/1 mM Pefabloc/1 uM pepstatin A/10 ug/ml leupeptin/2 ug/ml aprotinin/1% Triton X-100/0.5% Nonidet P-40/150 mM NaCl in 10 mM Tris, pH 7.4). The lysates were incubated with 30 μl agarose-conjugated anti-phosphotyrosine antibodies (Calbiochem) at 4° C. for 1 hr. Beads were then washed three times with immunoprecipitation buffer, resuspended in SDS sample buffer, and boiled for 5 min. Samples were separated using SDS-PAGE, and transferred to nitrocellulose membranes. Membranes were blocked for 1 hr at 25° C. in TBS containing 5% dry milk, incubated overnight 4° C. with a 1:300 dilution of anti-Ret antibody (C-19; Santa Cruz), then washed (3× in TBS containing 0.1% Tween-20) and incubated in a 1:10,000 dilution of anti-rabbit antibodies conjugated to HRP (Jackson Immunoresearch). Membranes were washed 3×, incubated with SuperSignal ULTRA (Pierce) for 5 minutes, then exposed to film. For MAP kinase (MAPK) assays, a portion of the total lysate wars removed before immunoprecipitation, separated by SDS-PAGE, and immunoblotted using an anti-phospho-MAP-kinase antibody (New England Biolabs).
NBL-S cells were plated at 3×10^5 cells/well in 6-well plates, and after 46 hr switched to low-serum (0.5%) medium for 2 hr, and then stimulated with NGF, GDNF or artemin (50 ng/ml) for 20 min. Cells were then collected and analyzed as above. For PI-PLC treatment, a parallel set of NBL-S cells were plated as above but treated with 500 mU/ml of PI-PLC (Boehringer-Mannheim) for 1 hr, and washed with PBS and stimulated with factors as above.

Molecule | response of SAN cells [1] | response of CHP126 cells [2] | activation of RET signaling in cells expressing GFRα2/RET (luciferase reporter) [3] | proliferation of NBL-S cells (BrdU incorporation) [4] | response of NLF cells transformed with GFRα3 (luciferase reporter) [5] | downstream signaling (activation of the MAP kinase pathway) in NBL-S cells ([6]; 50 ng/ml for 20 min) | tyrosine-phosphorylation of RET in NBL-S cells ([6]; 50 ng/ml for 20 min) | effect of PI-PLC pretreatment on signaling in NBL-S cells ([6]; 500 mU/ml PI-PLC for 1 hr, then factor 50 ng/ml for 20 min)
artemin: recombinant mature human artemin (FIG. 3A, SEQ ID NO:3) with 8-histidine tag, produced in E. coli; GDNF family neurotrophic factor | did not respond | did not respond | not GFRα2/RET | stimulated proliferation of NBL-S cells | allowed the cells to respond to artemin stimulation | effective in eliciting downstream signaling | induced tyrosine-phosphorylation of RET | abolished artemin's ability to activate RET and all downstream signaling
B1 | did not respond | did not respond | activated RET signaling | stimulated proliferation of NBL-S cells | decreased the ability of the cells to respond to GDNF | – | induced tyrosine-phosphorylation of RET | –
